Data set [1] has as its target T1, ARΔNTD (AR DBD-hinge-LBD);Smt3-PTGES3 (mouse;human, UniProt P19091;Q15185 528-899;1-160, |). The data set can be described thus: fluorescence polarization; 1 uM DHT; equimolar Smt3-PTGES3; binding stronger than ARΔNTD alone (P=0.0254); FP/EMSA: 150 mM NaCl, 20 mM HEPES pH 7.5, 1 mM TCEP, 1 uM DHT, 10% glycerol, 0.05% IGEPAL CA-630, 100 nM DNA; proteins preincubated 30 min on ice at 8 uM; assay temperature not stated. Mass photometry: same buffer at 5 uM, flash diluted into PBS to 10 nM. The conditions noted are these: protein: recombinant;recombinant; tags: ;N-terminal Smt3; label: 5'-fluorescein (6-FAM) on sense strand; blunt. Background: In fluorescence polarisation assays a small probe gives low polarisation when free and higher when bound to something large.

Data set [2] concerns the target ARΔNTD (AR DBD-hinge-LBD);PTGES3 (tagless) (mouse;human, UniProt P19091;Q15185 528-899;1-160, |). Description: fluorescence polarization; 1 uM DHT; equimolar PTGES3; binding stronger than ARΔNTD alone (P=0.0337); FP/EMSA: 150 mM NaCl, 20 mM HEPES pH 7.5, 1 mM TCEP, 1 uM DHT, 10% glycerol, 0.05% IGEPAL CA-630, 100 nM DNA; proteins preincubated 30 min on ice at 8 uM; assay temperature not stated. Mass photometry: same buffer at 5 uM, flash diluted into PBS to 10 nM. The conditions noted are these: protein: recombinant;recombinant; tags: ;Smt3 tag cleaved by Ulp1; label: 5'-fluorescein (6-FAM) on sense strand; blunt.

In data set [3] the target is ARΔNTD (AR DBD-hinge-LBD) (mouse, UniProt P19091 528-899). The data set can be described thus: fluorescence polarization; 1 uM DHT; no PTGES3; apparent Kd only plotted; FP/EMSA: 150 mM NaCl, 20 mM HEPES pH 7.5, 1 mM TCEP, 1 uM DHT, 10% glycerol, 0.05% IGEPAL CA-630, 100 nM DNA; proteins preincubated 30 min on ice at 8 uM; assay temperature not stated. Mass photometry: same buffer at 5 uM, flash diluted into PBS to 10 nM. The conditions noted are these: protein: recombinant; chain copies: 2; label: 5'-fluorescein (6-FAM) on sense strand; blunt.
Sequence of ARΔNTD (AR DBD-hinge-LBD) (P19091 528-899, stated change not applied): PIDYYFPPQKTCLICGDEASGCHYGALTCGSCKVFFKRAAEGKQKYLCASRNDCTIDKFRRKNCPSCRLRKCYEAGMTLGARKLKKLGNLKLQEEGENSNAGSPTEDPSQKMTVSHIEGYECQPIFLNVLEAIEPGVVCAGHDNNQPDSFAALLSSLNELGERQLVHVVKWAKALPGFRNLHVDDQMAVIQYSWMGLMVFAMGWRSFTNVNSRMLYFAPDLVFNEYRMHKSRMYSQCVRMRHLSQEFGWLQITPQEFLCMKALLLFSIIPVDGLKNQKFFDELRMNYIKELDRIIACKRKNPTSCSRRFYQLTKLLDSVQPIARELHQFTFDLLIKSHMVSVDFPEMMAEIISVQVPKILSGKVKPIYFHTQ

In data set [4] the target is ARDBD;PTGES3 (tagless) (mouse;human, UniProt P19091;Q15185 528-631;1-160, |). The data set can be described thus: EMSA; equimolar PTGES3 augments ARDBD binding; PTGES3 variant (tagless or Smt3) not stated; FP/EMSA: 150 mM NaCl, 20 mM HEPES pH 7.5, 1 mM TCEP, 1 uM DHT, 10% glycerol, 0.05% IGEPAL CA-630, 100 nM DNA; proteins preincubated 30 min on ice at 8 uM; assay temperature not stated. Mass photometry: same buffer at 5 uM, flash diluted into PBS to 10 nM. The following applies: protein: recombinant;recombinant; tags: ;Smt3 tag cleaved by Ulp1; label: 5'-fluorescein (6-FAM) on sense strand; blunt. (In general: In EMSA bound probe runs differently from free probe, usually more slowly.)
Sequence of ARDBD;PTGES3 (tagless) (P19091 528-631, chain 1 of 2): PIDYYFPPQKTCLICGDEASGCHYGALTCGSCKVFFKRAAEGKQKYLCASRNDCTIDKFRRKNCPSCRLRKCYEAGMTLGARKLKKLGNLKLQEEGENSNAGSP
Sequence of ARDBD;PTGES3 (tagless) (Q15185 whole entry, chain 2 of 2): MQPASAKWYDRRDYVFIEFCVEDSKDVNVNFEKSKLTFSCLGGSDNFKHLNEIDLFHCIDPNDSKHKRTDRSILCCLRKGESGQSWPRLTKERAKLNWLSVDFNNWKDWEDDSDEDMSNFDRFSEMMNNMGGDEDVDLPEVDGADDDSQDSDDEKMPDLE

Data set [5] deals with T1, ARΔNTD (AR DBD-hinge-LBD);Smt3-PTGES3. The data set can be described thus: mass photometry; Smt3-PTGES3 restricts formation of heterogeneous complexes; FP/EMSA: 150 mM NaCl, 20 mM HEPES pH 7.5, 1 mM TCEP, 1 uM DHT, 10% glycerol, 0.05% IGEPAL CA-630, 100 nM DNA; proteins preincubated 30 min on ice at 8 uM; assay temperature not stated. Mass photometry: same buffer at 5 uM, flash diluted into PBS to 10 nM. The conditions noted are these: protein: recombinant;recombinant; tags: ;N-terminal Smt3; blunt.

T1 sequence (P19091 528-899, stated change not applied, chain 1 of 2): as the sequence (P19091 528-899, stated change not applied) above
T1 sequence (Q15185 whole entry, stated change not applied, chain 2 of 2, the tested form may be a part): as the sequence (Q15185 whole entry, chain 2 of 2) above
Sequence of ARΔNTD (AR DBD-hinge-LBD);PTGES3 (tagless) (P19091 528-899, stated change not applied, chain 1 of 2): as the sequence (P19091 528-899, stated change not applied) above
Sequence of ARΔNTD (AR DBD-hinge-LBD);PTGES3 (tagless) (Q15185 whole entry, stated change not applied, chain 2 of 2, the tested form may be a part): as the sequence (Q15185 whole entry, chain 2 of 2) above

B1: ARE 36 bp (dsDNA)
DNA 1: TAAAATGTAAACAACGTAGAACATCAGGAACTCCGG
DNA 2: CCGGAGTTCCTGATGTTCTACGTTGTTTACATTTTA
With B1, the binding result in data set [1], in data set [2] and in data set [3] was “binds” throughout.

B2: Canonical ARE 36 bp (dsDNA)
DNA 1: TAAAATGTAAACAACGTAGAACATCATGTTCTCCGG
DNA 2: CCGGAGAACATGATGTTCTACGTTGTTTACATTTTA
For the molecule B2, the binding result in data set [4] was “binds”.

B3: ARE 36 bp, unlabeled (mass photometry) (dsDNA)
DNA 1: TAAAATGTAAACAACGTAGAACATCATGTTCTCCGG
DNA 2: CCGGAGAACATGATGTTCTACGTTGTTTACATTTTA
Take B3: the binding result in data set [5] was “binds”.

For the origin of these results see article PMC12695660, “Genome-scale CRISPR screens identify PTGES3 as a direct modulator of androgen receptor function in advanced prostate cancer”.
